Assays:
Assay in all cases: fluorescence polarisation
[1] = molecular target: FITC-labeled full-length caspase-7 S30A/C186A (UniProt P55210)
[2] = molecular target: FITC-labeled full-length caspase-7 C186A (UniProt P55210)
[3] = molecular target: FITC-labeled full-length caspase-7 C186A phosphorylated by autoactivated PAK2 (UniProt P55210)

- Kd [1]: 1700 nM
- Kd [2]: 1800 nM
- Kd [3]: > 27 µM
Substance: caspase-9 constitutive dimer C287A (from UniProt P55211 1-416) (enzyme)

Source: PMC5521178
